Patent US20210186010A1, “SURFACES […] QUORUM SENSING MODULATORS” (priority 2015, published 2021)
“And” between values parts separate entries of the source, which are not always exact repeats. Equal entries are not always repeated.

Tests used:
[1] = test system: Agr QS in the S. aureus reporter strain; test: Solution Assay: fluorescence reporter assay (agrP3-mkate2 normalized to sarAP1-gfpmut2), plate reader; format: cell-based, Staphylococcus aureus; details: activation of Agr QS, compound in solution; n=3 experiments
Protocol: Transcription from fluorescence reporter genes was measured in S. aureus strain MK242. Overnight cultures were diluted 1:200 into fresh TSB with 10 µg/ml tetracycline and 10 µg/ml erythromycin, re-grown, and 90 μl of these cultures were distributed into wells of 96 well plates (MatTek, Ashland, Mass.), followed by addition of 10 μl of AIP-I and/or TrAIP-II and/or derivatives. Subsequently, 50 μl of mineral oil was added (Sigma, St. Louis, Mo.) to prevent evaporation. Using a Synergy 2 plate reader (Biotek, Winooski, Vt.), GFPmut2 and mKate2 levels were measured at 484 nm/528 nm and 588 nm/633 nm, respectively. Measurements were conducted with 15 min intervals at 37° C. with shaking. This assay was called “Solution Assay”.
To make AIP-I amenable to surface attachment, AIP-I containing an alkyne at the N-terminus was synthesized (FIG. 7A and FIG. 8A). This compound was called “Alkyne-AIP-I” (FIG. 2A). Prior to attaching the Alkyne-AIP-I to the surface linkers, the click reaction was carried out between the Alkyne-AIP-I and a surface-free version of the PEG330-azide linker to test if the AIP-I derivatives retained their activation capability following the click reaction. […] This compound was called “PEG330-triazole-AIP-I” (FIG. 2A (iii), FIG. 7A and FIG. 8B).
It was investigated whether a QS antagonist, when immobilized on a surface, could interfere with Agr QS signal transduction. […]

[2] = test system: Agr QS in the S. aureus reporter strain; test: Fluorescence imaging / single-cell analysis of S. aureus reporter strain incubated with compounds in solution; format: cell-based, Staphylococcus aureus; details: 100 nM AIP-I, 3 h incubation
Excerpt: FIG. 1 Includes FIG. 1A-FIG. 1C. FIG. 1A. illustrates the Agr QS responses of S. aureus to exogenously supplied agonists and antagonists. To follow the QS status of S. aureus cells growing on unmodified and chemically-modified surfaces, confocal microscopy and an S. aureus reporter strain that produced the fluorescent protein mKate2 in response to exogenous addition of AIP-I was used. The reporter strain was a ΔagrBDCA ΔRNAIII S. aureus mutant harboring a multicopy plasmid carrying agrCA driven by the native agrP2 promoter. […] The plasmid also harbored the Agr-activated agrP3 promoter fused to mkate2. Therefore, in response to exogenously provided AIP-I, the reporter strain fluoresced red. This QS response was repressed by the administration of TrAIP-II. A constitutively expressed sarAP1-gfpmut2 gene was introduced into the chromosome to enable normalization of QS responses^18. FIG. 1B. […]
FIG. 1B. Fluorescence images of the S. aureus reporter strain (pathways shown in panel FIG. 1A) after 3 h incubation with buffer or buffer containing 100 nM AIP-I agonist. […] Fluorescence images of the S. aureus reporter strain used in this study following 3 h incubation with TrAIP-II or with combinations of AIP-I and TrAIP-II. […]
FIG. 6. […] To identify the source of heterogeneity, the fluorescent protein distributions in individual cells was measured under different conditions. […]

[3] = biological target: AgrC-I receptor (Staphylococcus aureus (agr-I)); test: cell-based or functional assay

Row | Substance | EC50 of Agr QS activation (agrP3-mkate2 reporter normalised to constitutive GFPmut2, solution assay, S. aureus reporter strain) [3] | IC50 of Agr QS inhibition when AIP-I is present at 100 nM (reporter solution assay) [3] | other results
1 | AIP-I |  |  | EC50 [1]: 28 nM and 30 nM; mKate2 production (QS-controlled reporter) [2]: mKate2 was produced only when AIP-I was supplied to the cells
2 | AIP-I (peptide) | 28 nM |  | 
3 | Alkyne-AIP-I (peptide) | 190 nM |  | 
4 | Alkyne-TrAIP-II (peptide) |  | 210 nM | 
5 | PEG330-triazole-AIP-I (peptide) | 1100 nM |  | 
6 | PEG330-triazole-TrAIP-II (peptide) |  | 3100 nM | 
7 | Surface-PEG10000-triazole-AIP-I (peptide) |  |  | activation of the Agr QS response at T=6 h against T=0 h (surface assay, microfluidic chambers) [3]: 25 fold; surface coverage density above which the QS response is saturated [3]: > 16000 µm^-2; surface coverage density below which no QS response is elicited [3]: < 210 µm^-2
8 | TrAIP-II (peptide) |  | 1500 nM | decrease in QS inhibition when TrAIP-II is lowered from 2.5 µM to 250 nM, with 100 nM AIP-I [3]: 9 fold
